# Earlier results, collected in patent US20240269065A1, “Implantable Device for Release of Glucagon-Like Peptide-1 Receptor Agonist” (Celanese EVA Performance Polymers LLC, priority 2023, published 2024).
# Molecular target: GLP-1 receptor (Homo sapiens, UniProt P43220)
# Settings: in vitro studies; compared with native GLP-1 and exenatide
# Sequence of GLP-1 receptor (P43220 24-463, species assumed): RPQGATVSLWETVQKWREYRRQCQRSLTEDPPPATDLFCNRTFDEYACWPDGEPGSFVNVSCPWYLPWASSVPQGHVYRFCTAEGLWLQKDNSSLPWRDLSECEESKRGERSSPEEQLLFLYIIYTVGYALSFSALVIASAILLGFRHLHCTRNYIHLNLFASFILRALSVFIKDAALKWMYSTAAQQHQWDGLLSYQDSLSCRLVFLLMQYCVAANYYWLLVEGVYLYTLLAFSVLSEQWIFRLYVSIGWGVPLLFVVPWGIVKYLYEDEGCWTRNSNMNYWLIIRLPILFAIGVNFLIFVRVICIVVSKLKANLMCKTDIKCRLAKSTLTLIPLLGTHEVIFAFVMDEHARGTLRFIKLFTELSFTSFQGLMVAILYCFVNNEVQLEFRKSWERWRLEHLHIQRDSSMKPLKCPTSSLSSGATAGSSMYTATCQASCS
substance,measurement,value
Lixisenatide,affinity for the GLP-1 receptor relative to native GLP-1 and exenatide,four times greater affinity
